# According to US20160228506A1, “Compositions and Formulations for Prevention and Reduction of Tumorigenesis, Cancer Cell Proliferation and Invasion, and Methods of Production and Use Thereof in Cancer Treatment” (PRONUTRIA, INC., priority 2013, published 2016):
# B1: SEQID-00544: protein of the 168 nutritive polypeptide library (protein, listed as Gadus morhua)
# chain: MGTRLHQTNTMKFAALALALLLAVGSHAAAMQSDAPSQLAHIRSAVGMYLDQVKDSAARSLDHLDGTEYESYKAQLATSLDSLQASIKTAQAGAEPYTDAAVAQVMEATTEVRASIMADIETLRTGPGPKREALKKVVDGHI
# B2: SEQID-00570: protein of the 168 nutritive polypeptide library (protein, listed as Saccharomyces cerevisiae)
# chain: MFLRNSVLRTAPVLRRGITTLTPVSTKLAPPAAASYSQAMKANNFVYVSGQIPYTPDNKPVQGSISEKAEQVFQNVKNILAESNSSLDNIVKVNVFLADMKNFAEFNSVYAKHFHTHKPARSCVGVASLPLNVDLEMEVIAVEKN
# modifications: source: /note="strain ATCC 204508 / S288c"
# notes: protein of the 168 nutritive polypeptide library
# B3: SEQID-00591: protein of the 168 nutritive polypeptide library (protein, listed as Saccharomyces cerevisiae)
# chain: MLNRCISRNTRLPVNLRIASRFYSDGPLGGAGPGNPQDIFIKRERAKEDYYARQQEREQLAHVKEQLKEHKKKLENLENKINNLSK
# modifications: source: /note="strain ATCC 204508 / S288c"
# notes: as for B2
# B4: SEQID-00533: protein of the 168 nutritive polypeptide library (protein)
# chain: MVTEFQTRDLADVIRRPIVTEKATIQMELNQFTFDVDPRADKPTIKAAVELLFPVKVLSVNTQNPPRRQRRVGRFVGYKPRYKRAIVTLEDGEALRKVLFPEV
# modifications: Arthrospira platensis NIES-39
# notes: as for B2
# B5: SEQID-00564: protein of the 168 nutritive polypeptide library (protein)
# chain: MAPKAEKKPAAKKPAEEEPAAPAEKAPAGKKPDLIKRLPAGKSAGKEGGVDKKGRKKAKKSVETYKIYIFKVLKQVHPDIGISSKAMSIMNSFINDIFEKLAGEAAKLARYNKKPTITSREIQTSVRLVLPGELAKHAVSEGTKAVTKFTSS
# modifications: Zea mays
# notes: as for B2
# B6: SEQID-00534: protein of the 168 nutritive polypeptide library (protein)
# chain: MSIYVGNLSYEVTEDDLTAVFAEYGSVKRVKLPTDRETGRMRGFGFVEMDTEAEEQSAIDALDGAEWCGRDLRVNKAKPRENSGSFGGGGGGRRGGGGYSRRS
# modifications: Arthrospira platensis NIES-39
# notes: as for B2
# B7: SEQID-00590: protein of the 168 nutritive polypeptide library (protein, listed as Lactobacillus acidophilus)
# chain: MANKAELVSEVASKTKLTKKEVAAAVDAIFGSIQDNLAKGEKVQLIGFGTFEVRHRAARKGRNPQTGDEIEIPASEVPAFKPGKALKEAVK
# modifications: source: /note="strain 30SC"
# notes: as for B2
# B8: SEQID-00562: protein of the 168 nutritive polypeptide library (protein, listed as Lactobacillus acidophilus)
# chain: MKKFASFVLGAVAGCAAGFLAGSLLVSDEQVDDVKNKIKDNDKLQDLKKKYDNGTEIVKNQLASFPKNVEDDSELKDFDDIVIDDSNKDDDVTAGDNAQESVDDLNNAEEEHNAEDAEEDKPEA
# modifications: source: /note="strain 30SC"
# notes: as for B2
# B9: SEQID-00574: protein of the 168 nutritive polypeptide library (protein, listed as Lactobacillus acidophilus)
# chain: MPTINQLVRKGRHSKVTKSKSPALNYSYNSMKKESVFNPAPQMRGVATRVGTMTPKKPNSALRKYARVRLSNLIEVTAYIPGEGHNLQEHSVVLIRGGRVKDLPGVRYHIVRGALDTAGVDGRKQSRSKYGAKKD
# modifications: source: /note="strain 30SC"
# notes: as for B2
# B10: SEQID-00573: protein of the 168 nutritive polypeptide library (protein, listed as Cicer arietinum)
# chain: MAPAKAEKKPAEKKPAAEKAPAEKKPKAEKKISKEGTSDKKKKRVKKSVETYKIYIFKVLKQVHPDIGISSKAMGIMNSFINDIFEKLAQEASRLARYNKKPTITSREIQTAVRLVLPGELAKHAVSEGTKAVTKFTSS
# B11: SEQID-00540: protein of the 168 nutritive polypeptide library (protein)
# chain: MARIAGVDLPRDKRVEIGLTYIYGIGLSRSKEILAETGVNPDTRVKDLTDADVAALRSVIQTNYQVEGDLRRLEAMSIKRLMDIGTYRGRRHRMGLPVRGQRTRTNARTRRGVRRTVAGKKKAASKK
# modifications: Arthrospira platensis C1
# notes: as for B2
# B12: SEQID-00541: protein of the 168 nutritive polypeptide library (protein, listed as Agaricus bisporus)
# chain: MVRISVLNDCLKSICNASRRGKRQVIVRPSSKVVVKFLSVMQRHGYIGEFEIIDDHRGGKIIVQLNGRLNKTGVISPRFNVQHNRIEQWINYLLPSRGIGIIVLTTSSGILDHEEARRKNVGGKLLGYVY
# modifications: source: /note="var. bisporus"; source: /note="strain H97 / ATCC MYA-4626 / FGSC 10389"
# notes: as for B2
# B13: SEQID-00532: protein of the 168 nutritive polypeptide library (protein)
# chain: MSIAVGMIETIGFPAVVEAADSMVKAARVTLVGYEKIGSGRVTVIVRGDVSEVQASVSAGIESVKRVNGGEVSSTHIIARPHENLEYVLPIRYTDAVEQFRSY
# modifications: Arthrospira platensis NIES-39
# notes: as for B2
# B14: SEQID-00581: protein of the 168 nutritive polypeptide library (protein)
# chain: MPKRQRKLAPPRGYKMHVKKGDTVQVIAGRDKGKVGEVISTLPKLSKVVVRDVNVRTKHVKPQQEGEGGRIVNFEAPIHSSNVMLYSTKEKVASRVSYTFTEDGRKVRMLKKTGEVID
# modifications: Arthrospira platensis NIES-39
# notes: as for B2
# B15: SEQID-00552: protein of the 168 nutritive polypeptide library (protein, listed as Saccharomyces cerevisiae)
# chain: MSNMMNKFAEKLQGNDDSHQKGKNAKSSNKERDDMNMDMGMGHDQSEGGMKMGHDQSGTKMNAGRGIANDWKTYENMKK
# modifications: source: /note="strain ATCC 204508 / S288c"
# notes: as for B2
# B16: SEQID-00545: protein of the 168 nutritive polypeptide library (protein, listed as Saccharomyces cerevisiae)
# chain: MLSRAIFRNPVINRTLLRARPGAYHATRLTKNTFIQSRKYSDAHDEETFEEFTARYEKEFDEAYDLFEVQRVLNNCFSYDLVPAPAVIEKALRAARRVNDLPTAIRVFEALKYKVENEDQYKAYLDELKDVRQELGVPLKEELFPSSS
# modifications: source: /note="strain ATCC 204508 / S288c"
# notes: as for B2
# B17: SEQID-00536: protein of the 168 nutritive polypeptide library (protein, listed as Solanum lycopersicum)
# chain: MEEEKHHHHHLFHHKDKAEEGPVDYEKEIKHHKHLEQIGKLGTVAAGAYALHEKHEAKKDPEHAHKHKIEEEIAAAAAVGAGGFAFHEHHEKKDAKKEEKKAEGGHHHLF
# B18: SEQID-00555: protein of the 168 nutritive polypeptide library (protein)
# chain: MQAQEIIRAIEQEEIESVKTNVQKESIPKIYVGDTVKVGVRITEGGKERIQPYQGTVIAMRNGGINETITVRRIFQGVGVERVFLLHSPRIASIKVIMRGKVRRAKLYYLRDRVGKATRVPQRFDRPL
# modifications: Arthrospira platensis NIES-39
# notes: as for B2
# Test: SGF digest of 168 nutritive polypeptide library, intact protein by LC-MS/MS
# Format: in vitro ADME
# Details: 168 nutritive polypeptide library SGF digest, LC-MS/MS spectral counts
# Description: The in vitro intact half-life of multiple polypeptides in a complex mixture was determined using the simulated gastric in vitro digestion described above. Briefly, the 168 nutritive polypeptide library was generated as described herein by cloning, transforming, and expressing a gene library encoding 168 proteins as a single mixture. The recombinantly expressed proteins were purified from host cell proteins by IMAC purification as described herein.
# The 168 Protein Library was treated with SGF as described above and the t=0 and t=10 min samples were analyzed for intact protein by LC-MS/MS. To begin, 10 μg of sample was loaded onto a 10% SDS-PAGE gel (Invitrogen) and run approximately 5 cm into the gel. The gel was excised into ten fractions from 100 kD to the dye front and the gel slices were processed by washing with 25 mM ammonium bicarbonate, followed by acetonitrile. Gel fractions were then reduced with 10 mM dithiothreitol at 60° C., followed by alkylation with 50 mM iodoacetamide at room temperature. Finally, the samples were digested with trypsin (Promega) at 37° C. for 4 h and the digestions were quenched with the addition of formic acid. The samples were then analyzed by nano LC/MS/MS using an EasynLC 1000 HPLC system interfaced to a ThermoFisher Q Exactive. Peptides were loaded on a trapping column and eluted over a 75 μm analytical column at 350 nL/min; both columns were packed with PepMap C18 3 μm resin (ThemoFisher). A 1 hour gradient was employed. The mass spectrometer was operated in data-dependent mode, with MS and MS/MS performed in the Orbitrap at 70,000 FWHM resolution and 17,500 FWHM resolution, respectively. The fifteen most abundant ions were selected for MS/MS. Data were searched against an appropriate database using Mascot to identify peptides. Mascot DAT files were parsed into the Scaffold software for validation, filtering and to create a nonredundant list per sample. Data were filtered at 1% protein and peptide false discovery rate (FDR) and requiring at least two unique peptides per protein. A full list of detected proteins and their spectral counts (SpC) was generated and reported as a function of each collected gel fraction. SpC are a count of the number of spectra identified for a given protein and are used as a measure of relative protein abundance (Liu, H. et al., Analytical Chemistry 2004, 76: 4193-4201). To calculate the percentage of intact protein remaining at the 10 min time point of the SGF digest the number of SpC representative of intact peptide in the t=10 min sample were divided by the number of SpC representative of intact peptide in the t=0 min sample. The number of SpC representative of intact peptide was defined as the sum of the SpC in the fraction with the highest number of SpC assigned to that protein in the t=0 min sample and the two flanking fractions.
row,Molecule,% Intact Protein at 10 min [%]
1,B1,0
2,B2,91.4
3,B3,20
4,B4,19
5,B5,89.6
6,B6,0
7,B7,0
8,B8,0
9,B9,0
10,B10,66.7
11,B11,0
12,B12,0
13,B13,0
14,B14,33.3
15,B15,79
16,B16,0
17,B17,11.8
18,B18,6.8
